Assay results reported in patent US20030199036.

Target: S. pombe cdc25 tagged with a triple tandem copy of the hemagglutinin epitope (UniProt P06652)

Substance: Schizosaccharomyces pombe pub1 (untagged)
- accumulation of cdc25 higher molecular weight (ubiquitinated) species in mts2 mutants, pub1 wild type (SP 1212) against pub1 disruption (SP 1213), Western blot: We estimate that disruption of pub1 reduces the accumulation of cdc25 higher molecular weight species at least 10 fold.
